In patent publication CN111018973A one finds OD值 (450 nm, 参考630 nm) data, which are given here for one molecule.

For experiment [1], the target named is cTnI质控品重组抗原 (human) (UniProt P19429). Put plainly: indirect ELISA, cTnI coated at 1 ug/ml, antibody 0 ng/ml (blank, background), goat anti-mouse IgG-HRP.
The target is the same in experiment [2]. Put plainly: indirect ELISA, cTnI coated at 1 ug/ml, antibody 200 ng/ml, goat anti-mouse IgG-HRP.
Experiment [3] has the same target. Put plainly: indirect ELISA, cTnI coated at 1 ug/ml, antibody 1.6 ng/ml, goat anti-mouse IgG-HRP.
Experiment [4] has the same target. Put plainly: indirect ELISA, cTnI coated at 1 ug/ml, antibody 8 ng/ml, goat anti-mouse IgG-HRP. On the technique in general: An ELISA detects its analyte on a solid surface through an enzyme-linked reagent.
Experiment [5] shares this target. Put plainly: indirect ELISA, cTnI coated at 1 ug/ml, antibody 40 ng/ml, goat anti-mouse IgG-HRP.
The target is the same in experiment [6]. Briefly: indirect ELISA, cTnI coated at 1 ug/ml, antibody 1000 ng/ml, goat anti-mouse IgG-HRP.
The target is the same in experiment [7]. Briefly: indirect ELISA, cTnI coated at 1 ug/ml, antibody 0.32 ng/ml, goat anti-mouse IgG-HRP.

Sequence of UniProt P19429 (P19429 whole entry): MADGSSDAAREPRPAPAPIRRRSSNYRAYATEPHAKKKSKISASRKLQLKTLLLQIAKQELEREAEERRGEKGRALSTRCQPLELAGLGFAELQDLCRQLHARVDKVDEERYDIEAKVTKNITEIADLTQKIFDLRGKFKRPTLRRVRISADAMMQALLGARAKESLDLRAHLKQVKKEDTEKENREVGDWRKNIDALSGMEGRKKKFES

B1: Anti-cTnI 8B6 重组抗体 (WT) (antibody, V domains shown)
VH: EVQLQQSGAELVKPGASVKLSCTASGFNIRDYYMHWMKQRTEQGLDWIGRIDPEEGETKYPPEFQGKATITADTSSNTAYLQLSTLTSEDTAVYYCARYYTSYIPFVYWGQGTLVTASA
VL: DVVMTQTPLSLSVSLGDQASISCRSTQSLLYSQRHTFLHWYLQKPGQSPKLLIFKISNKFSGVPDRFSGSGSGTDFTLKISRVEAEDLGVYFCSNSTHLPYTFGSGTKLEIKR
As to B1, the OD值 (450 nm, 参考630 nm) turned out to be 0.062 OD with cTnI质控品重组抗原 (human) [1]; 1.91 OD with cTnI质控品重组抗原 (human) [2]; 0.227 OD with cTnI质控品重组抗原 (human) [3]; 1.47 OD in the experiment with cTnI质控品重组抗原 (human) [4]; 1.85 OD in the experiment with cTnI质控品重组抗原 (human) [5]; 2.03 OD in the experiment with cTnI质控品重组抗原 (human) [6]. This molecule displayed an OD值 (450 nm, 参考630 nm) with cTnI质控品重组抗原 (human) [7] of 0.086 OD.
